Reference: the supplement of paper PMC10567573

B1: CSNK1G1 (parent)
chain: GSLPWQGLKADTLKERYQKIGDTK

Variants of: B1
Assay: protein stability index of a GFP-peptide fusion (GPS, HEK-293T) (PSI 1-6); higher = more stable
Conditions: c terminus: a fixed tail appended
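Further: lentivirally expressed fusions sorted by FACS into six bins by GFP to DsRed ratio, PSI derived from sequencing read proportions per bin multiplied by bin number.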

Q: For GSLPWQGNKADTLKERYQKIGDTK [L8N], which protein stability index is on record?
A: 4.58

Q: For GSLPWQGPKADTLKERYQKIGDTK [L8P], which protein stability index is on record?
A: 4.43

Q: For GSLPWQGIKADTLKERYQKIGDTK [L8I], which protein stability index is on record?
A: 4.13

Q: With GSLPWQGWKADTLKERYQKIGDTK [L8W] as the variant, how does the protein stability index read?
A: 3.69

Q: For GSLPWQGYKADTLKERYQKIGDTK [L8Y], which protein stability index is on record?
A: 3.63

Q: Which protein stability index does the source give for GSLPWQGSKADTLKERYQKIGDTK [L8S] here?
A: 4.64

Q: Which protein stability index does the source give for GSLPWQGVKADTLKERYQKIGDTK [L8V] here?
A: 4.66

Q: Which protein stability index does the source give for GSLPWQGKKADTLKERYQKIGDTK [L8K] here?
A: 4.17

Q: With GSLPWQGEKADTLKERYQKIGDTK [L8E] as the variant, how does the protein stability index read?
A: 4.44

Q: For GSLPWQGGKADTLKERYQKIGDTK [L8G], which protein stability index is on record?
A: 4.76

Q: With GSLPWQGMKADTLKERYQKIGDTK [L8M] as the variant, how does the protein stability index read?
A: 4.35

Q: Which protein stability index does the source give for GSLPWQGTKADTLKERYQKIGDTK [L8T] here?
A: 4.9

Q: Which protein stability index does the source give for GSLPWQGDKADTLKERYQKIGDTK [L8D] here?
A: 4.75

Q: Which protein stability index does the source give for GSLPWQGRKADTLKERYQKIGDTK [L8R] here?
A: 4.32

Q: With GSLPWQGHKADTLKERYQKIGDTK [L8H] as the variant, how does the protein stability index read?
A: 4.36

Q: With GSLPWQGCKADTLKERYQKIGDTK [L8C] as the variant, how does the protein stability index read?
A: 3.35

Q: For GSLPWQGAKADTLKERYQKIGDTK [L8A], which protein stability index is on record?
A: 3.73

Q: For GSLPWQGFKADTLKERYQKIGDTK [L8F], which protein stability index is on record?
A: 3.54

Q: Which protein stability index does the source give for GSLPWQGQKADTLKERYQKIGDTK [L8Q] here?
A: 4.24

Q: With GSLPWQGLKIDTLKERYQKIGDTK [A10I] as the variant, how does the protein stability index read?
A: 3.6

Q: For GSLPWQGLKCDTLKERYQKIGDTK [A10C], which protein stability index is on record?
A: 3.48

Q: Which protein stability index does the source give for GSLPWQGLKEDTLKERYQKIGDTK [A10E] here?
A: 4.06

Q: Which protein stability index does the source give for GSLPWQGLKFDTLKERYQKIGDTK [A10F] here?
A: 3.5

Q: Which protein stability index does the source give for GSLPWQGLKGDTLKERYQKIGDTK [A10G] here?
A: 4.46

Q: Which protein stability index does the source give for GSLPWQGLKHDTLKERYQKIGDTK [A10H] here?
A: 4.11

Q: Which protein stability index does the source give for GSLPWQGLKDDTLKERYQKIGDTK [A10D] here?
A: 5.01

Q: With GSLPWDGLKADTLKERYQKIGDTK [Q6D] as the variant, how does the protein stability index read?
A: 4.48

Q: Which protein stability index does the source give for GSLPWRGLKADTLKERYQKIGDTK [Q6R] here?
A: 3.96

Q: For GSLPWHGLKADTLKERYQKIGDTK [Q6H], which protein stability index is on record?
A: 4.62

Q: With GSLPWKGLKADTLKERYQKIGDTK [Q6K] as the variant, how does the protein stability index read?
A: 4.13

Q: For GSLPWFGLKADTLKERYQKIGDTK [Q6F], which protein stability index is on record?
A: 3.25

Q: For GSLPWAGLKADTLKERYQKIGDTK [Q6A], which protein stability index is on record?
A: 3.7

Q: With GSLPWWGLKADTLKERYQKIGDTK [Q6W] as the variant, how does the protein stability index read?
A: 2.74

Q: With GSLPWTGLKADTLKERYQKIGDTK [Q6T] as the variant, how does the protein stability index read?
A: 4.24

Q: With GSLPWPGLKADTLKERYQKIGDTK [Q6P] as the variant, how does the protein stability index read?
A: 4.57

Q: Which protein stability index does the source give for GSLPWIGLKADTLKERYQKIGDTK [Q6I] here?
A: 3.94

Q: Which protein stability index does the source give for GSLPWEGLKADTLKERYQKIGDTK [Q6E] here?
A: 4.32

Q: Which protein stability index does the source give for GSLPWGGLKADTLKERYQKIGDTK [Q6G] here?
A: 4.13

Q: For GSLPWLGLKADTLKERYQKIGDTK [Q6L], which protein stability index is on record?
A: 3.77

Q: For GSLPWMGLKADTLKERYQKIGDTK [Q6M], which protein stability index is on record?
A: 4.07

Q: With GSLPWVGLKADTLKERYQKIGDTK [Q6V] as the variant, how does the protein stability index read?
A: 4.33

Q: Which protein stability index does the source give for GSLPWSGLKADTLKERYQKIGDTK [Q6S] here?
A: 3.98

Q: With GSLPWCGLKADTLKERYQKIGDTK [Q6C] as the variant, how does the protein stability index read?
A: 3.4

Q: For GSLPWYGLKADTLKERYQKIGDTK [Q6Y], which protein stability index is on record?
A: 2.89

Q: With GSLPWNGLKADTLKERYQKIGDTK [Q6N] as the variant, how does the protein stability index read?
A: 3.92

Q: For GSLPWQRLKADTLKERYQKIGDTK [G7R], which protein stability index is on record?
A: 3.56

Q: Which protein stability index does the source give for GSLPWQSLKADTLKERYQKIGDTK [G7S] here?
A: 4.01

Q: For GSLPWQTLKADTLKERYQKIGDTK [G7T], which protein stability index is on record?
A: 3.89

Q: Which protein stability index does the source give for GSLPWQFLKADTLKERYQKIGDTK [G7F] here?
A: 2.42

Q: With GSLPWQCLKADTLKERYQKIGDTK [G7C] as the variant, how does the protein stability index read?
A: 3.4

Q: For GSLPWQNLKADTLKERYQKIGDTK [G7N], which protein stability index is on record?
A: 4.64

Q: With GSLPWQVLKADTLKERYQKIGDTK [G7V] as the variant, how does the protein stability index read?
A: 3.65

Q: Which protein stability index does the source give for GSLPWQWLKADTLKERYQKIGDTK [G7W] here?
A: 3.52

Q: Which protein stability index does the source give for GSLPWQKLKADTLKERYQKIGDTK [G7K] here?
A: 3.75

Q: For GSLPWQLLKADTLKERYQKIGDTK [G7L], which protein stability index is on record?
A: 3.44

Q: For GSLPWQALKADTLKERYQKIGDTK [G7A], which protein stability index is on record?
A: 4.39

Q: With GSLPWQILKADTLKERYQKIGDTK [G7I] as the variant, how does the protein stability index read?
A: 3.52

Q: With GSLPWQPLKADTLKERYQKIGDTK [G7P] as the variant, how does the protein stability index read?
A: 4.38

Q: Which protein stability index does the source give for GSLPWQQLKADTLKERYQKIGDTK [G7Q] here?
A: 3.9

Q: Which protein stability index does the source give for GSLPWQYLKADTLKERYQKIGDTK [G7Y] here?
A: 3.49

Q: Which protein stability index does the source give for GSLPWQMLKADTLKERYQKIGDTK [G7M] here?
A: 3.85

Q: With GSLPWQDLKADTLKERYQKIGDTK [G7D] as the variant, how does the protein stability index read?
A: 4.33

Q: With GSLPWQHLKADTLKERYQKIGDTK [G7H] as the variant, how does the protein stability index read?
A: 3.72

Q: Which protein stability index does the source give for GSLPWQELKADTLKERYQKIGDTK [G7E] here?
A: 4.31

Q: With GSLPMQGLKADTLKERYQKIGDTK [W5M] as the variant, how does the protein stability index read?
A: 4.61

Q: Which protein stability index does the source give for GSLPTQGLKADTLKERYQKIGDTK [W5T] here?
A: 5.09

Q: With GSLPPQGLKADTLKERYQKIGDTK [W5P] as the variant, how does the protein stability index read?
A: 4.62

Q: For GSLPNQGLKADTLKERYQKIGDTK [W5N], which protein stability index is on record?
A: 4.97

Q: For GSLPKQGLKADTLKERYQKIGDTK [W5K], which protein stability index is on record?
A: 4.74

Q: For GSLPSQGLKADTLKERYQKIGDTK [W5S], which protein stability index is on record?
A: 4.99

Q: With GSLPYQGLKADTLKERYQKIGDTK [W5Y] as the variant, how does the protein stability index read?
A: 4.43

Q: Which protein stability index does the source give for GSLPLQGLKADTLKERYQKIGDTK [W5L] here?
A: 4.62

Q: For GSLPRQGLKADTLKERYQKIGDTK [W5R], which protein stability index is on record?
A: 4.29

Q: For GSLPQQGLKADTLKERYQKIGDTK [W5Q], which protein stability index is on record?
A: 4.38

Q: With GSLPVQGLKADTLKERYQKIGDTK [W5V] as the variant, how does the protein stability index read?
A: 4.58

Q: For GSLPWQGLPADTLKERYQKIGDTK [K9P], which protein stability index is on record?
A: 5.08

Q: Which protein stability index does the source give for GSLPWQGLVADTLKERYQKIGDTK [K9V] here?
A: 3.77

Q: Which protein stability index does the source give for GSLPWQGLEADTLKERYQKIGDTK [K9E] here?
A: 4.69

Q: Which protein stability index does the source give for GSLPWQGLYADTLKERYQKIGDTK [K9Y] here?
A: 4.13

Q: Which protein stability index does the source give for GSLPWQGLHADTLKERYQKIGDTK [K9H] here?
A: 4.24

Q: For GSLPWQGLWADTLKERYQKIGDTK [K9W], which protein stability index is on record?
A: 3.58

Q: Which protein stability index does the source give for GSLPWQGLFADTLKERYQKIGDTK [K9F] here?
A: 3.66

Q: Which protein stability index does the source give for GSLPWQGLIADTLKERYQKIGDTK [K9I] here?
A: 3.79

Q: For GSLPWQGLGADTLKERYQKIGDTK [K9G], which protein stability index is on record?
A: 3.9

Q: With GSLPWQGLDADTLKERYQKIGDTK [K9D] as the variant, how does the protein stability index read?
A: 4.25

Q: For GSLPWQGLQADTLKERYQKIGDTK [K9Q], which protein stability index is on record?
A: 3.89

Q: With GSLPWQGLCADTLKERYQKIGDTK [K9C] as the variant, how does the protein stability index read?
A: 3.93

Q: For GSLPWQGLLADTLKERYQKIGDTK [K9L], which protein stability index is on record?
A: 3.18

Q: With GSLPWQGLTADTLKERYQKIGDTK [K9T] as the variant, how does the protein stability index read?
A: 4.35

Q: With GSLPWQGLNADTLKERYQKIGDTK [K9N] as the variant, how does the protein stability index read?
A: 4.46

Q: With GSLPWQGLSADTLKERYQKIGDTK [K9S] as the variant, how does the protein stability index read?
A: 4.2

Q: With GSLPWQGLMADTLKERYQKIGDTK [K9M] as the variant, how does the protein stability index read?
A: 3.87

Q: Which protein stability index does the source give for GSLPWQGLAADTLKERYQKIGDTK [K9A] here?
A: 3.71

Q: For GSLPWQGLRADTLKERYQKIGDTK [K9R], which protein stability index is on record?
A: 4.09
